Biological target: human GPC3 residues 32-483 (hGPC3^core) (human, UniProt P51654 32-483, N-linked glycans at N124 and N241)
Test: SPR

Chain of human GPC3 residues 32-483 (hGPC3^core) (P51654 32-483): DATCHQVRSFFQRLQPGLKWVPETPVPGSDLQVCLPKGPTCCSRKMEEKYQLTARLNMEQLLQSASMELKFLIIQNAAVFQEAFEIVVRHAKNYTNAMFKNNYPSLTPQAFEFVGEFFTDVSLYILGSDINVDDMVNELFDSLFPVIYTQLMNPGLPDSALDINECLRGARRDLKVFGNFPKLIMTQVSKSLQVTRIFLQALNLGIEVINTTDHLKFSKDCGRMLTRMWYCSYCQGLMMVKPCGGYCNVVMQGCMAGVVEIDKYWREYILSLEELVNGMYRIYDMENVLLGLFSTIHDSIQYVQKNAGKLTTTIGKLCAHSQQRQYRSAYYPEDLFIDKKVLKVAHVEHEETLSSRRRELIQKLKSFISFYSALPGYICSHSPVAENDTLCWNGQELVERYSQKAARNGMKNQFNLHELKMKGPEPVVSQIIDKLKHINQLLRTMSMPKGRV

B1: mouse Unc5A ectodomain (mUnc5A^ecto, residues 1-359) (domain or fragment)
chain: not shown
B1: binds.
